For this series, the system named is TBP2. Nature of the series: pull-down. The following applies: negative control, biotin-dUTP/dATP fill-in, 20 mM Tris pH 8.0, 1 mM EDTA, 5 mM DTT, 5 mM MgCl2, 100 mM KCl, 0.125% NP40, protease inhibitors, overnight at 4 C, washes 100-200 mM KCl (up to 400 mM tested).

The sequence “GATCCCGGAGTTAA / GATCTTAACTCCGG [methylated concatamerized GATC-CCGG-AGTTAA probe (SssI+)]” returned a binding signal (very low affinity, 5-methylcytosine at CpG (SssI), both strands) below 1 % recovered.
For the sequence “GATCCCGGAGTTAA / GATCTTAACTCCGG [unmethylated concatamerized GATC-CCGG-AGTTAA probe (SssI-)]”, the binding signal (residual affinity) worked out at 4 % recovered.

These data come from article PMC3169474.
